Here are results for one molecule from US20240301053A1, “COMBINATION THERAPIES WITH VENETOCLAX AND TIM-3 INHIBITORS” (Novartis AG, priority 2019, published 2024).

The experiment addresses T1, TIM-3/Galectin-9 interaction (Homo sapiens, UniProt Q8TDQ0).
T1 construct: TIM-3 fusion protein (R&D Systems) was coated on a standard MesoScale 96 well plate; purchased R&D Systems
The experiment is described as follows: plate-based (MesoScale) TIM-3/Galectin-9 competition assay. It counts as binding. The note with it: TIM-3 fusion protein coated at 2 μg/ml; labeled Galectin-9 100 nM; serial dilutions. On the procedure: TIM-3 fusion protein (R&D Systems) was coated on a standard MesoScale 96 well plate (Meso Scale Discovery) at 2 μg/ml in PBS (Phosphate Buffered Saline) and incubated for six hours at room temperature. The plate was washed three times with PBST (PBS buffer containing 0.05% Tween-20) and blocked with PBS containing 5% Probumin (Millipore) overnight at 4° C. After incubation, the plate was washed three times with PBST and unlabeled antibody (F38-2E2 (BioLegend); MBG453; MBG453 F(ab′)2; MBG453 F(ab); or control recombinant human Galectin-9 protein) diluted in Assay Diluent (2% Probumin, 0.1% Tween-20, 0.1% Triton X-100 (Sigma) with 10% StabilGuard (SurModics)), was added in serial dilutions to the plate and incubated for one hour on an orbital shaker at room temperature. The plate was then washed three times with PBST, and Galectin-9 labeled with MSD SULFOTag (Meso Scale Discovery) as per manufacturer's instructions, diluted in Assay Diluent to 100 nM, was added to the plate for one hour at room temperature on an orbital shaker. The plate was again washed three times with PBST, and Read Buffer T (1×) was added to the plate. The plate was read on MA600 Imager, and competition was assessed as a measure of the ability of the antibody to block Ga19-SULFOTag signal to TIM-3 receptor.

B1: control Galectin-9 protein: control recombinant human Galectin-9 protein, unlabeled (protein)
chain: AFSGSQAPYLSPAVPFSGTIQGGLQDGLQITVNGTVLSSSGTRFAVNFQTGFSGNDIAFHFNPRFEDGGYVVCNTRQNGSWGPEERKTHMPFQKGMPFDLCFLVQSSDFKVMVNGILFVQYFHRVPFHRVDTISVNGSVQLSYISFQPPGVWPANPAPITQTVIHTVQSAPGQMFSTPAIPPMMYPHPAYPMPFITTILGGLYPSKSILLSGTVLPSAQRFHINLCSGNHIAFHLNPRFDENAVVRNTQIDNSWGSEERSLPRKMPFVRGQSFSVWILCEAHCLKVAVDGQHLFEYYHRLRNLPTINRLEVGGDIQLTHVQT
Regarding B1, the “ability to block Gal9-SULFOTag signal to TIM-3 receptor (interaction between TIM-3 and Galectin-9)” value was “did not”.
